Assay results reported in patent US20240084011A1.
Positions count from the first letter of the chain named.

B1: 78-8D14 scFv (scFv, part only; not given: Linker, domain order, 3xFLAG tag, V domains shown, not shown: another chain or arm of the molecule; small tags and cut ends)
VH: EVQLVESGGGLVQPGGSLRLSCAASGFTFSSYVMHWVRQAPGKGLEWVSAISWSGRGTYYADSVKGRFTISRDNSKNTLYLQMNSLRAEDTAVYYCARGRLFGLARYGEAFDVWGQGTLVTVSS
VL: DIQMTQSPSSLSASVGDRVTITCQASRDISNYLNWYQQKPGKAPKLLIYDASNLETGVPSRFSGSGSGTDFTFTISSLQPEDIATYYCQQFNSFPLTFGQGTKVEIK
B2: 78-8D5 scFv (scFv, part only; not given: Linker, domain order, 3xFLAG tag, V domains shown, not shown: another chain or arm of the molecule; small tags and cut ends)
VH: B1 VH with R56G, R106L
VL: B1 VL with R27K
B3: 78-24D17 scFv (scFv, part only; not given: Linker, domain order, 3xFLAG tag, V domains shown, not shown: another chain or arm of the molecule; small tags and cut ends)
VH: EVQLVESGGGLVQPGGSLRLSCAASGFTFSSSSMHWVRQAPGKGLEWVSGISGSGGSTSYADSVKGRFTISRDNSKNTLYLQMNSLRAEDTAVYYCARYLMSFNLTRTSWFDVWGQGTLVTVSS
VL: B1 VL with R27Q, D28A, F91G, N92D, S93A, F94W, L96W
B4: 78-8D10 scFv (scFv, part only; not given: Linker, domain order, 3xFLAG tag, V domains shown, not shown: another chain or arm of the molecule; small tags and cut ends)
VH: MEVQLVESGGGLVQPGGSLRLSCAASGFTFSSYVMHWVRQAPGKGLEWVSAISWSGRGTYYADSVKGRFTISRDNSKNTLYLQMNSLRAEDTAVYYCARGRLFGLALYGEAFDVWGQGTLVTVSS
VL: B1 VL with R27K
B5: 78-8 scFv (scFv, part only; not given: Linker, domain order, 3xFLAG tag, V domains shown, not shown: another chain or arm of the molecule; small tags and cut ends)
VH: B1 VH with W53G, R56G, F102I, R106L
VL: B1 VL with R27K
B6: 78-24D1 scFv (scFv, part only; not given: Linker, domain order, 3xFLAG tag, V domains shown, not shown: another chain or arm of the molecule; small tags and cut ends)
VH: B3 VH with S30T, S32Y, G56R, Y99D, S102A, T108A, S109G, W110G
VL: B1 VL with R27Q, Y32F, F91G, N92D, S93A, F94W, L96W
B7: 78-8D22 scFv (scFv, part only; not given: Linker, domain order, 3xFLAG tag, V domains shown, not shown: another chain or arm of the molecule; small tags and cut ends)
VH: B1 VH with R56S
VL: B1 VL with R27K, P95A
B8: 78-8D4 scFv (scFv, part only; not given: Linker, domain order, 3xFLAG tag, V domains shown, not shown: another chain or arm of the molecule; small tags and cut ends)
VH: B1 VH with S52T, R56G, A105V
VL: B1 VL with R27K
B9: 78-8D7 scFv (scFv, part only; not given: Linker, domain order, 3xFLAG tag, V domains shown, not shown: another chain or arm of the molecule; small tags and cut ends)
VH: B1 VH with R56A, L104R, R106L
VL: B1 VL with R27K, N31I, S52F, P59S
B10: 78-24D8 scFv (scFv, part only; not given: Linker, domain order, 3xFLAG tag, V domains shown, not shown: another chain or arm of the molecule; small tags and cut ends)
VH: B3 VH with E6K, S32Y, G56R, Y99D, S102A, S109G, W110G
VL: B1 VL with R27Q, S76N, F91G, N92D, S93A, F94W, L96W
B11: 78-24D12 scFv (scFv, part only; not given: Linker, domain order, 3xFLAG tag, V domains shown, not shown: another chain or arm of the molecule; small tags and cut ends)
VH: B3 VH with S32Y, G56L, Y99D, S102A, S109G, W110G
VL: B1 VL with R27H, S30L, F91G, N92H, S93A, F94W, P95L, L96W
B12: 78-24D9 scFv (scFv, part only; not given: Linker, domain order, 3xFLAG tag, V domains shown, not shown: another chain or arm of the molecule; small tags and cut ends)
VH: B3 VH with S54W, S109G
VL: B1 VL with R27Q, S30A, F91S, N92D, S93A, F94W, L96W
B13: 78-8D6 scFv (scFv, part only; not given: Linker, domain order, 3xFLAG tag, V domains shown, not shown: another chain or arm of the molecule; small tags and cut ends)
VH: B1 VH with A23V, R56G, R106L
VL: B1 VL with R27K, D50N
B14: 78-8D2 scFv (scFv, part only; not given: Linker, domain order, 3xFLAG tag, V domains shown, not shown: another chain or arm of the molecule; small tags and cut ends)
VH: B1 VH with S52T, R106L
VL: B1 VL with R27K, T74I
B15: 78-28 scFv (scFv, part only; not given: Linker, domain order, 3xFLAG tag, V domains shown, not shown: another chain or arm of the molecule; small tags and cut ends)
VH: EVQLVESGGGLVQPGGSLRLSCAASGFTFSSYYMHWVRQAPGKGLEWVSAIYGNGGYTYYADSVKGRFTISRDNSKNTLYLQMNSLRAEDTAVYYCARGRPARHQVGFDVWGQGTLVTVSS
VL: B1 VL with R27L, F91L, N92Y, S93T, F94V
B16: 78-36 scFv (scFv, part only; not given: Linker, domain order, 3xFLAG tag, V domains shown, not shown: another chain or arm of the molecule; small tags and cut ends)
VH: MEVQLVESGGGLVQPGGSLRLSCVASGFTFSSYYMHWVRQAPGKGLEWVSAISGSGGSTYYADSVKGRFTISRDNSKNTLYLQMNSLRAEDTAVYYCARGRQVGKSSFGEAFDVWGQGTLVTVSS
VL: B1 VL with R27Q, N92T, L96Y

The binders below were run against recombinant human CTLA-4 protein (human) (UniProt P16410) (assay: SPR (Pioneer FE, OneStep), 25 C; 3xFLAG scFv captured by anti-FLAG M2, human CTLA-4 as analyte).
recombinant human CTLA-4 protein (human), sequence (P16410 36-161 limits assumed): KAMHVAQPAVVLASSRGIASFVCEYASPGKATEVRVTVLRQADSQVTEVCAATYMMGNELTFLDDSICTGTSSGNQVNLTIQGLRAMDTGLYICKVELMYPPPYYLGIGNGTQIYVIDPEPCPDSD

| Kd | Binder |
| --- | --- |
| 0.32 nM | B1 |
| 0.74 nM | B2 |
| 0.87 nM | B3 |
| 0.58 nM | B4 |
| 168 nM | B5 |
| 1.15 nM | B6 |
| 0.16 nM | B7 |
| 0.21 nM | B8 |
| 0.3 nM | B9 |
| 1.46 nM | B10 |
| 2.88 nM | B11 |
| 1.18 nM | B12 |
| 0.24 nM | B13 |
| 0.37 nM | B14 |

What follows are binders tested against recombinant mouse CTLA-4 protein (mouse) (UniProt P09793) (assay: SPR (Pioneer FE, OneStep), 25 C; 3xFLAG scFv captured by anti-FLAG M2, mouse CTLA-4 as analyte).
recombinant mouse CTLA-4 protein (mouse), sequence (P09793 36-161 limits assumed): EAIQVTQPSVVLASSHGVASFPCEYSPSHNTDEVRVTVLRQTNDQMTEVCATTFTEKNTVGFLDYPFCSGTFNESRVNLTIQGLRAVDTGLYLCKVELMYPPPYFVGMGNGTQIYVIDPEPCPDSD

| Kd | Binder |
| --- | --- |
| 0.17 nM | B1 |
| 0.42 nM | B2 |
| 1.06 nM | B3 |
| 0.49 nM | B4 |
| 2.57 nM | B15 |
| 0.06 nM | B5 |
| 0.059 nM | B6 |
| 0.37 nM | B7 |
| 0.2 nM | B8 |
| 0.39 nM | B9 |
| 0.01 nM | B10 |
| 0.98 nM | B16 |
| 0.01 nM | B11 |
| 1.11 nM | B12 |
| 0.19 nM | B13 |
| 0.3 nM | B14 |
